Measurements published in paper doi:10.1101/2023.03.26.534243.

Columns and labels:
Assay in all cases: BLI
FcγRIIb/c = FcγRIIb/c (UniProt P31994)
FcγRIIa_(H167) = FcγRIIa_(H167) (UniProt P12318)
FcγRIIIa_(F176) = FcγRIIIa_(F176) (UniProt P08637)
FcγRIa = FcγRIa (UniProt P12314)
FcγRIIIa_(V176) = FcγRIIIa_(V176) (UniProt P08637)

Sequence of UniProt P12314 (P12314 16-292): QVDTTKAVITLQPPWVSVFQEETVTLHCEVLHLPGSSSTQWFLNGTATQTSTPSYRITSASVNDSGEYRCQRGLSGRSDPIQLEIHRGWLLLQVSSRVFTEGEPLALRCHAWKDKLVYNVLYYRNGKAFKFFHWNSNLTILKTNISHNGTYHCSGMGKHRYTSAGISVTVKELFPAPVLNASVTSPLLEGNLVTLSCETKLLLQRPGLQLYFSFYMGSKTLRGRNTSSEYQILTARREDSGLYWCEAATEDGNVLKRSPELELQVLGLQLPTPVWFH
Sequence of UniProt P31994 (P31994 43-217): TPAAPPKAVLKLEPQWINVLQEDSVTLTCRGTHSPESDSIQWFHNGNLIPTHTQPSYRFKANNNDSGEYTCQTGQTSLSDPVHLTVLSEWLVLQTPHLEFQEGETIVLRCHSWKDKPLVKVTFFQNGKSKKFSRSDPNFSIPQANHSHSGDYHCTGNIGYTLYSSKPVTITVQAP
Sequence of UniProt P12318 (P12318 34-217): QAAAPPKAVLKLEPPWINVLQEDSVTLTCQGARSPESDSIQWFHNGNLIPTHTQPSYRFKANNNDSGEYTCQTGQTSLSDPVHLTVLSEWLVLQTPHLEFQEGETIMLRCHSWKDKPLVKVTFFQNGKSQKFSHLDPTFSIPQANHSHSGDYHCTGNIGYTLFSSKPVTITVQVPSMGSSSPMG

**Q.** Which kon (FcγRIIb/c) does the source give for Pertuzumab IgG2 VH1 (antibody) here?
**A.** 176000 M⁻¹ s⁻¹

**Q.** How did the kon (FcγRIIb/c) turn out when Pertuzumab IgG2 VH3 (antibody) was run?
**A.** 308000 M⁻¹ s⁻¹

**Q.** With Pertuzumab IgG2 VH4 (antibody) as the substance, how does the kon (FcγRIIa_(H167)) read?
**A.** 360000 M⁻¹ s⁻¹

**Q.** And the koff (FcγRIIb/c)?
**A.** 0.00934 s⁻¹

**Q.** For Pertuzumab IgG3 VH1 (antibody), which Kd (FcγRIIIa_(F176)) is on record?
**A.** 92.9 nM

**Q.** What about the koff (FcγRIIIa_(F176)) of the same substance?
**A.** 0.0328 s⁻¹

**Q.** What about the kon (FcγRIIIa_(F176)) of the same substance?
**A.** 160000 M⁻¹ s⁻¹

**Q.** And the koff (FcγRIa)?
**A.** 0.000553 s⁻¹

**Q.** And the kon (FcγRIa)?
**A.** 208000 M⁻¹ s⁻¹

**Q.** With Pertuzumab IgG3 VH3 (antibody) as the substance, how does the Kd (FcγRIIa_(H167)) read?
**A.** 5.75 nM

**Q.** And the Kd (FcγRIIIa_(V176))?
**A.** 181 nM

**Q.** And the koff (FcγRIIIa_(V176))?
**A.** 0.0178 s⁻¹

**Q.** And the kon (FcγRIIIa_(V176))?
**A.** 13500 M⁻¹ s⁻¹

**Q.** Which results are given for Pertuzumab IgG3 VH4 (antibody)?
**A.** kon (FcγRIIb/c): 72900 M⁻¹ s⁻¹; Kd (FcγRIIIa_(V176)): 88.7 nM

**Q.** How did the koff (FcγRIIa_(H167)) turn out when Pertuzumab IgG3 VH5 (antibody) was run?
**A.** 0.00279 s⁻¹

**Q.** What about the Kd (FcγRIIb/c) of the same substance?
**A.** 24.8 nM

**Q.** Pertuzumab IgG4 VH1 (antibody) was tested. Which Kd (FcγRIa) did it give?
**A.** 3.62 nM

**Q.** Pertuzumab IgG4 VH2 (antibody) was tested. Which Kd (FcγRIa) did it give?
**A.** 75.7 nM

**Q.** With Pertuzumab IgG4 VH3 (antibody) as the substance, how does the Kd (FcγRIa) read?
**A.** 127 nM

**Q.** With Pertuzumab IgG4 VH4 (antibody) as the substance, how does the Kd (FcγRIa) read?
**A.** 191 nM

**Q.** With Pertuzumab IgG4 VH5 (antibody) as the substance, how does the Kd (FcγRIa) read?
**A.** 151 nM

**Q.** For Pertuzumab IgG4 VH6 (antibody), which Kd (FcγRIa) is on record?
**A.** 7.15 nM

**Q.** With Pertuzumab IgG4 VH7 (antibody) as the substance, how does the Kd (FcγRIa) read?
**A.** 20.7 nM
